The record followed here is patent US20220195043A1 (BEIJING MABWORKS BIOTECH, published 2022).

Substitutions are numbered along the chain they refer to. Names and notes keep the numbering of the source.

The target of assay [1] is T1, monkey CD3ε-his (Cat #: 90047-C08H, SinoBiological, China) (monkey, UniProt Q95LI5 22-117).
T1 construct: Bought protein; also called monkey CD3ε protein; recombinant monkey CD3ε
T1 sequence: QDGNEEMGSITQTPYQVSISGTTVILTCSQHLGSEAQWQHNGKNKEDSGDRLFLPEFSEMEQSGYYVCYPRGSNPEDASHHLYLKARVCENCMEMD
Put plainly: ELISA: plate coated with monkey CD3ε-his, antibody titrated, HRP goat anti-human IgG, OD450. Background: ELISA stands for enzyme-linked immunosorbent assay.

Assay [2] addresses T2, human CD3ε-his (Cat #:10977-H08s, SinoBiological, China) (human, UniProt P07766 23-126).
T2 construct: Bought protein; also called human CD3ε protein; recombinant human CD3ε; not shown: his tag
Put plainly: ELISA: plate coated with human CD3ε-his, antibody titrated, HRP goat anti-human IgG, OD450.

The target in assay [3] is T2, human CD3ε-his (Cat #:10977-H08s, …). The assay can be described thus: ELISA: plate coated with human CD3ε-his, antibody titrated, HRP goat anti-human IgG, OD 450.
Assay [4] has as its target T1, monkey CD3ε-his (Cat #: 90047-C08H, …). Put plainly: ELISA: plate coated with monkey CD3ε-his, antibody titrated, HRP goat anti-human IgG, OD 450.
The target in assay [5] is T3, human CD64 (HEK293A/human CD64 cells) (human, UniProt P12314 16-374).
T3 construct: Stably expressed on HEK293A cells; also called FcγRI
T3 sequence (P12314 16-374 limits assumed): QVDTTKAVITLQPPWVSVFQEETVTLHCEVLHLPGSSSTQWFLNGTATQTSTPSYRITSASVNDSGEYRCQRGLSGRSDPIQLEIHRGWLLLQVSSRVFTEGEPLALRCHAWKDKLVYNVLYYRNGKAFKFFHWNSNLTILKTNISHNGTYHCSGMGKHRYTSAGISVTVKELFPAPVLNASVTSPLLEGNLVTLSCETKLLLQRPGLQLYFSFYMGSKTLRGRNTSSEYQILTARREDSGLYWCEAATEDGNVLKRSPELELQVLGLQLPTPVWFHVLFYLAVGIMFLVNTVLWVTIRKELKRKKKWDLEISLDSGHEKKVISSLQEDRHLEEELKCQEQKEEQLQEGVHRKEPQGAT
The assay can be described thus: FACS on HEK293A/human CD64 cells, PE F(ab')2 goat anti-human IgG Fc, MFI; bars at 40, 8, 1.6, 0.32 and 0.064 µg/mL.

Assay [6] has as its target T4, human CD16A (HEK293A/human CD16A cells) (human, UniProt P08637 17-254).
T4 construct: Stably expressed on HEK293A cells; also called FcγRIIIA
The assay can be described thus: FACS on HEK293A/human CD16A cells, PE F(ab')2 goat anti-human IgG Fc, MFI; bars at 40, 8, 1.6, 0.32 and 0.064 µg/mL.

Assay [7] addresses T5, human TCR/CD3 complex on cell surfaces (primary human CD4+ T cells; Jurkat cells; human PBMCs) (human, UniProt P07766 23-207).
T5 construct: whole, on cells; Native complex on cells; the γ, δ, ζ and TCR chains of the complex are present on the cells too; also called human CD3 complexes on cell surfaces; human CD3+ T cells
Put plainly: FACS on Jurkat cells, PE goat anti-human IgG, MFI.

Assay [8] addresses T6, human CD32B (HEK293A/human CD32B cells) (human, UniProt P31994 43-310).
T6 construct: Stably expressed on HEK293A cells; also called FcγRIIB
T6 sequence: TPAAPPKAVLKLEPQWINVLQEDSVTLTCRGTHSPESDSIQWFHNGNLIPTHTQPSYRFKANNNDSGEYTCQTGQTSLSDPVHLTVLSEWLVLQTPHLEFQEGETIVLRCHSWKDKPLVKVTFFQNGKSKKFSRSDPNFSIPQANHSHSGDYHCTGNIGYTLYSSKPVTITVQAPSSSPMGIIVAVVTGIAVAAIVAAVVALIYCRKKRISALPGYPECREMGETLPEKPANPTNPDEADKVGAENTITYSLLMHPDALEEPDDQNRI
Put plainly: FACS on HEK293A/human CD32B cells, PE F(ab')2 goat anti-human IgG Fc, MFI; bars at 40, 8, 1.6, 0.32 and 0.064 µg/mL.

The target in assay [9] is T7, human CD32A (HEK293A/human CD32A cells) (human, UniProt P12318 34-317).
T7 construct: Stably expressed on HEK293A cells; also called FcγRIIA
T7 sequence: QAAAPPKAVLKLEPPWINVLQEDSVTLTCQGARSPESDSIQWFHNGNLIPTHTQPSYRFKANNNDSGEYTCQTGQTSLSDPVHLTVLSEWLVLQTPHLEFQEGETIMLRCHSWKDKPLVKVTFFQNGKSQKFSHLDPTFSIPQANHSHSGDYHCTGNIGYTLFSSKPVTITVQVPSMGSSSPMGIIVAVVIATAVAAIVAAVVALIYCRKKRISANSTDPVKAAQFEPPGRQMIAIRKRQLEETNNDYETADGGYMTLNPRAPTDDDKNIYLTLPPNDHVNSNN
Put plainly: FACS on HEK293A/human CD32A cells, PE F(ab')2 goat anti-human IgG Fc, MFI; bars at 40, 8, 1.6, 0.32 and 0.064 µg/mL.

The target of assay [10] is T5, human TCR/CD3 complex on cell surfaces …. The assay can be described thus: FACS on primary human T cells, PE goat anti-human IgG, MFI.

T5 sequence (P07766 23-207, one chain of several): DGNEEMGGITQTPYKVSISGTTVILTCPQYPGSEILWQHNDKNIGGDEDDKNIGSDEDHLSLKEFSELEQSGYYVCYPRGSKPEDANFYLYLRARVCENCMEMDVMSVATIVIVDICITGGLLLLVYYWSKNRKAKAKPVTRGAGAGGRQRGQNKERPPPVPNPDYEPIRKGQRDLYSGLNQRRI
T4 sequence (P08637 17-254 F176V limits assumed): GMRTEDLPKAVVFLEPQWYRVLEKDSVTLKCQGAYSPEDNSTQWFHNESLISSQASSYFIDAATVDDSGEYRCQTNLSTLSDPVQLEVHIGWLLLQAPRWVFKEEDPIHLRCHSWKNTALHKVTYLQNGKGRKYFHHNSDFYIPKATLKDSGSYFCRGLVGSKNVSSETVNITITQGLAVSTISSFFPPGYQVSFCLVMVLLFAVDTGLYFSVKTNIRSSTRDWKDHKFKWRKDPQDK
T2 sequence (P07766 23-126 limits assumed): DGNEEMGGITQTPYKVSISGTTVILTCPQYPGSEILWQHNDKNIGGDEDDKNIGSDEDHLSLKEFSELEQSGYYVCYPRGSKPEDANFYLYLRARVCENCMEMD

B1: humanized anti-CD3 antibody 15H2L3 (human IgG1) (antibody, V domains shown)
VH: EVQLLESGGGLVQPGGSLRLSCAASGFTFNTYAMNWVRQAPGKGLEWVARIRSKYNNYATYYAISVKDRFTISRDNSKNTLYLQMNSLRAEDTAVYYCVKHGNFGNSYLSYWAYWGQGTLVTVSS
VL: QAVVTQEPSLTVSPGGTVTLTCQSSTGAVTTNNYANWVQQKPGHAFRGLIGGTKQRAPGVPARFSGSLLGGKAALTLSGVQPEDEAEYYCVLWYSNLWVFGGGTKLTVLG
For orientation: EC50 (read off the curve) means the concentration needed to bring the measured effect to its halfway point. For B1, the concentration for a half-maximal effect (EC50 (read off the curve)) in assay [1] was approximately 90 µg/mL; in [2], approximately 80 µg/mL.

B2: humanized anti-CD3 antibody 26H3L3 (human IgG1) (antibody, V domains shown)
VH: B1 VH with I64D, N76D, V95M, K100R, L109I, Y111W
VL: B1 VL with Q23K, N32S, K54N, Q55L, R56H, V91A
Take B2: the entries for the “EC50 (read off the curve)” value in assay [3] and in assay [4] were approximately 0.08 µg/mL and approximately 0.1 µg/mL, respectively.

B3: 15H3L3-WT (15H3L3 with wild-typed IgG1 constant region and λ constant region SEQ ID NO: 32) (antibody)
heavy: not shown
light: QAVVTQEPSLTVSPGGTVTLTCQSSTGAVTTNNYANWVQQKPGHAFRGLIGGTKQRAPGVPARFSGSLLGGKAALTLSGVQPEDEAEYYCVLWYSNLWVFGGGTKLTVLGQPKAAPSVTLFPPSSEELQANKATLVCLISDFYPGAVTVAWKADSSPVKAGVETTTPSKQSNNKYAASSYLSLTPEQWKSHRSYSCQVTHEGSTVEKTVAPT
notes: also called 15H3L3 antibody with wild-typed Fc region
Take B3: the binding result in assay [5], in assay [6], in assay [8] and in [9] was “binds” each time. The “EC50 (read off the curve)” value in [7] is approximately 0.1 µg/mL.

B4: 15H3L3-LLNP (15H3L3 with IgG1 constant region L234A/L235A/N297A/P329G) (antibody)
heavy: EVQLLESGGGLVQPGGSLRLSCAASGFTFNTYAMNWVRQAPGKGLEWVARIRSKYNNYATYYAISVKDRFTISRDDSKNTLYLQMNSLRAEDTAMYYCVRHGNFGNSYLSYWAYWGQGTLVTVSSASTKGPSVFPLAPSSKSTSGGTAALGCLVKDYFPEPVTVSWNSGALTSGVHTFPAVLQSSGLYSLSSVVTVPSSSLGTQTYICNVNHKPSNTKVDKKVEPKSCDKTHTCPPCPAPEAAGGPSVFLFPPKPKDTLMISRTPEVTCVVVDVSHEDPEVKFNWYVDGVEVHNAKTKPREEQYASTYRVVSVLTVLHQDWLNGKEYKCKVSNKALGAPIEKTISKAKGQPREPQVYTLPPSREEMTKNQVSLTCLVKGFYPSDIAVEWESNGQPENNYKTTPPVLDSDGSFFLYSKLTVDKSRWQQGNVFSCSVMHEALHNHYTQKSLSLSPGK
light: B3 light
notes: also called 15H3L3-LLPN
Turning to B4, the binding result in [5], in [6], in assay [8] and in assay [9] was “no binding (tested: 40 µg/mL)” in each case. The “EC50 (read off the curve)” value in assay [7] was approximately 0.09 µg/mL.

B5: 15H3L3-LLN (15H3L3 with IgG1 constant region L234A/L235A/N297A) (antibody)
heavy: B4 heavy with G337P
light: B3 light
With B5, the binding result in [5], in assay [6] and in [9] was “no binding (tested: 40 µg/mL)” in each case. The concentration giving a half-maximal response (EC50 (read off the curve)) in [7] is approximately 0.09 µg/mL.

B6: 15H3L3-LL (15H3L3 with IgG1 constant region L234A/L235A) (antibody)
heavy: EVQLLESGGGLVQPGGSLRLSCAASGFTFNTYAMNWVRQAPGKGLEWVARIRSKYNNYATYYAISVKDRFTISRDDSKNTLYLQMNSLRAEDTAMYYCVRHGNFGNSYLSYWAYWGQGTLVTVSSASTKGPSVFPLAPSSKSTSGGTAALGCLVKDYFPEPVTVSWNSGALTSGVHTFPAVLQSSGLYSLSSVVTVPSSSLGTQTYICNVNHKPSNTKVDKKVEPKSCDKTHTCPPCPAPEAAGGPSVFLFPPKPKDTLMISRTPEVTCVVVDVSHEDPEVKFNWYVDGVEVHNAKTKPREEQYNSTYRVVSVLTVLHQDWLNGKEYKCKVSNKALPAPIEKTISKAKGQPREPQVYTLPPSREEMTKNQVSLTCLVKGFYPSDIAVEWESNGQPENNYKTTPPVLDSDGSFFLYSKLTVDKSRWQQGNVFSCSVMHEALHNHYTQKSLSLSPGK
light: B3 light
Regarding B6, the binding result in assay [5] is given as “binds”; in assay [6] it was “no binding (tested: 40 µg/mL)”; in assay [8], “binds”; in assay [9] it was “binds”. In addition, in [7], the “EC50 (read off the curve)” value is approximately 0.09 µg/mL.

B7: 15H3L3-LLP (15H3L3 with IgG1 constant region L234A/L235A/P329G) (antibody)
heavy: B4 heavy with A305N
light: B3 light
Turning to B7, the binding result in assay [5] and in assay [6] was “no binding (tested: 40 µg/mL)” each time. For the same molecule, the “EC50 (read off the curve)” value in [7] is approximately 0.09 µg/mL.

B8: chimeric antibody 19-37 (full length, human IgG1) (antibody, V domains shown)
VH: EVKLLESGGGLVQPKGSLKLSCAASGFTFNTYAMNWVRQAPGKGLEWVARIRSKYNNYATYYAISVKDRFTISRDDSQSILYLQMNNLKTEDTAMYYCVRHGNFGNSYISYWAYWGQGTLVTVSA
VL: QAVVTQESALTTSPGETVTLTCRSSTGAVTTNNYANWVQEKPDHLFTGLIGGTRLSAPGVPARFSGSLIGDKAALTITGAQTEDEAIYFCVLWYSNLWVFGGGTKLTVLG
With B8, the concentration for a half-maximal effect (EC50 (read off the curve)) in assay [10] was approximately 100 µg/mL.
